Among the data in ChEMBL document CHEMBL1147236, “Semiplenamides A-G, fatty acid amides from a Papua New Guinea collection of the marine cyanobacterium Lyngbya semiplena” (J Nat Prod, 2003) are Km values, retold here.

What is called Km is the substrate concentration at which the rate is half of its maximum.

Substrate in the series: CCCCC/C=C\C/C=C\C/C=C\C/C=C\CCCC(=O)NCCO
The note with it: Mus musculus; N18TG2.

Description: Activity at FAAH in mouse N18TG2 cell membranes

B1: Fatty-acid amide hydrolase 1 (Mus musculus), O08914 (protein)
chain: MVLSEVWTALSGLSGVCLACSLLSAAVVLRWTRSQTARGAVTRARQKQRAGLETMDKAVQRFRLQNPDLDSEALLALPLLQLVQKLQSGELSPEAVLFTYLGKAWEVNKGTNCVTSYLTDCETQLSQAPRQGLLYGVPVSLKECFSYKGHASTLGLSLNEGVTSESDCVVVQVLKLQGAVPFVHTNVPQSMLSYDCSNPLFGQTMNPWKPSKSPGGSSGGEGALIGSGGSPLGLGTDIGGSIRFPSAFCGICGLKPTGNRLSKSGLKSCVYGQTAVQLSVGPMARDVDSLALCMKALLCEDLFRLDSTIPPLPFREEIYRSSRPLRVGYYETDNYTMPTPAMRRAVMETKQSLEAAGHTLVPFLPNNIPYALEVLSAGGLFSDGGCSFLQNFKGDFVDPCLGDLVLVLKLPRWFKKLLSFLLKPLFPRLAAFLNSMCPRSAEKLWELQHEIEMYRQSVIAQWKAMNLDVVLTPMLGPALDLNTPGRATGAISYTVLYNCLDFPAGVVPVTTVTAEDDAQMEHYKGYFGDMWDNILKKGMKKGIGLPVAVQCVALPWQEELCLRFMREVERLMTPEKRPS
For the protein B1, the Km came to 15 µM.
